Experiments:
[1] = target: T1, recombinant human KLB (soluble protein) (human, UniProt Q86Z14 53-997, limits assumed); test: SPR, Biacore T200, antibody captured on Protein A chip, monomeric human KLB as analyte, 25 C; mean ± range of two experiments
T1 construct: also called monomeric human KLB; recombinant KLB
Protocol: (§1) For binding affinity determination of tcIgG and traditional IgG, surface plasmon resonance (SPR) measurements using a BIAcore T200 and ProteinA sensor chip was used and dilutions of monomeric human KLB as analyte were injected over the immobilized tcIgG or traditional IgG at 25° C. to determine monovalent affinities. Association rates (kon) and dissociation rates (koff) were calculated using a simple one-to-one Langmuir binding model. The equilibrium dissociation constant (Kd) was calculated as the ratio koff/kon.

[2] = target: T1, recombinant human KLB (soluble protein); test: SPR (BIAcore T200), antibody captured on Protein A chip, monomeric human KLB as analyte, 25 C, 1:1 Langmuir fit
Protocol: as §1

[3] = target: T1, recombinant human KLB (soluble protein); test: binding affinity test of Example 7 (FIG. 21); method not restated, presumably the Biacore assay of Example 6; text of Example 7 (FIG. 21); Table 9 prints 2.06 ± 0.11 nM
Protocol: as §1

Kd [1]: 2.06 nM
koff [1]: 0.000244 s⁻¹
kon [1]: 117000 M⁻¹ s⁻¹
kon [2]: 119000 M⁻¹ s⁻¹
Kd [3]: 2.05 nM
B1: anti-KLB antibody clone 28B7 in tri-chain IgG format (antibody)
chain 1: DIVMTQSPSSLAVSVGEKVTLSCKSGQSLLYSRNQKNYLAWYQQKPGQSPKLLISWASTRESGVPDRFTGSGSGTDFTLTISSVKTEDLAVYHCQQYYSYPYTFGGGTRLEIKRGGGGSGGGGSGGGGSGGGGSEVQLQQSGPELVQPGTSVKISCEASGYTFTDYYINWVKQSRGKSLEWIGDINPNNGDTTYNQKFKAKATLTVDRSSNTAYMELRSLTSEDSVVYYCARRFYSSPFDSWGQGTTLTVSS
chain 2: not shown
notes: VL-linker-VH-CH1-CH2-CH3 (VLfH) plus a separate CL domain disulfide-bonded to CH1; also called 28B7 tcIgG; 28B7 tcIgG1; not shown: human IgG1 heavy chain constant region (CH1-hinge-CH2-CH3); monospecific tcIgG were made by c
